Experimental data from patent US20190071480A1 (Biogen, published 2019).

How the values were obtained:
[1] = biological target: T1, extracellular domain of activin receptor type IIB (ActRIIBecd), biotinylated (Homo sapiens (Human), UniProt Q13705 27-117, amino-biotinylated with amine-PEG3-Biotin); test: BIAcore SPR, biotinylated ActRIIBecd on chip; SD ±19.51 nM
T1 construct: immobilised on a streptavidin-coated sensor chip; also called biotinylated ActRIIBecd; extracellular domain of ActRIIB
T1 sequence: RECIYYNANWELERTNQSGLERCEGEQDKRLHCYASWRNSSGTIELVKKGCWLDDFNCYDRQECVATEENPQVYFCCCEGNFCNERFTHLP
Method: (§1) Biosensor experiments. In one embodiment, experiments were performed on a BIAcore™ T100/T200 instrument (Pharmacia Biosensor AB) in the multichannel mode (serial flow path involving flow cells 1+2+3+4). Flow rate was 10 μl/min; temperature was 25° C.; and data were recorded at 2.5 points/s. All four segments of a sensor chip CMS were coated with streptavidin (Sigma) to a density of 2000 pg/mm² (2000 resonance units) by the aminocoupling procedure. ActRIIBecd (10 mg) and amine-PEG3-Biotin (10 mg, Pierce, Rockford, Ill.) were dissolved in 200 μl H₂O and 10 mg NaCNBH₃ was added to prepare biotinylated ActRIIBecd. The reaction mixture was heated at 70° C. for 24 h, after that a further 10 mg NaCNBH₃ was added and the reaction was heated at 70° C. for another 24 h. After cooling to room temperature, the mixture was desalted with the spin column (3,000 molecular weight cut off (MWCO)). […] Sensograms were recorded during flow of the analyte (the ActRIIBecd-associated polypeptides (i.e., domains) as previously described) first through flow cell 1 (control) then through flow cell 2 (biotinylated ActRIIBecd). […] The sensograms obtained at 1.11, 3.33, 10, 30, and 90 nM analyte were evaluated for equilibrium binding, association rate, and dissociation rate by using the programs supplied with the instrument (BIA evaluation 2.1; Software Handbook. 1995; Pharmacia Biosensor AB).

[2] = biological target: T1, extracellular domain of activin …; test: BIAcore SPR, biotinylated ActRIIBecd on chip; SD ±13.64 nM
Method: as §1

[3] = biological target: T1, extracellular domain of activin …; test: BIAcore SPR, biotinylated ActRIIBecd on chip; SD ±12.74 nM
Method: as §1

[4] = biological target: T1, extracellular domain of activin …; test: BIAcore SPR, biotinylated ActRIIBecd on chip; SD ±17.84 nM
Method: as §1

[5] = biological target: T1, extracellular domain of activin …; test: BIAcore SPR, biotinylated ActRIIBecd on chip; SD ±12.34 nM
Method: as §1

[6] = biological target: T1, extracellular domain of activin …; test: BIAcore SPR, biotinylated ActRIIBecd on chip; SD ±19.11 nM
Method: as §1

[7] = biological target: T1, extracellular domain of activin …; test: BIAcore SPR, biotinylated ActRIIBecd on chip; SD ±13.69 nM
Method: as §1

[8] = biological target: T1, extracellular domain of activin …; test: BIAcore SPR, biotinylated ActRIIBecd on chip; SD ±16.11 nM
Method: as §1

[9] = biological target: T1, extracellular domain of activin …; test: BIAcore SPR, biotinylated ActRIIBecd on chip; SD ±18.67 nM
Method: as §1

[10] = biological target: T1, extracellular domain of activin …; test: BIAcore SPR, biotinylated ActRIIBecd on chip; SD ±18.14 nM
Method: as §1

[11] = biological target: T1, extracellular domain of activin …; test: BIAcore SPR, biotinylated ActRIIBecd on chip; SD ±12.89 nM
Method: as §1

[12] = biological target: T1, extracellular domain of activin …; test: BIAcore SPR, biotinylated ActRIIBecd on chip; SD ±13.71 nM
Method: as §1

[13] = biological target: T1, extracellular domain of activin …; test: BIAcore SPR, biotinylated ActRIIBecd on chip; SD ±12.47 nM
Method: as §1

[14] = biological target: T1, extracellular domain of activin …; test: BIAcore SPR, biotinylated ActRIIBecd on chip; SD ±12.78 nM
Method: as §1

[15] = biological target: T1, extracellular domain of activin …; test: BIAcore SPR, biotinylated ActRIIBecd on chip; SD ±16.58 nM
Method: as §1

[16] = biological target: T1, extracellular domain of activin …; test: BIAcore SPR, biotinylated ActRIIBecd on chip; SD ±12.76 nM
Method: as §1

[17] = biological target: T1, extracellular domain of activin …; test: BIAcore SPR, biotinylated ActRIIBecd on chip; SD ±11.79 nM
Method: as §1

[18] = biological target: T1, extracellular domain of activin …; test: BIAcore SPR, biotinylated ActRIIBecd on chip; SD ±16.51 nM
Method: as §1

[19] = biological target: T1, extracellular domain of activin …; test: BIAcore SPR, biotinylated ActRIIBecd on chip; SD ±15.71 nM
Method: as §1

[20] = biological target: T1, extracellular domain of activin …; test: BIAcore SPR, biotinylated ActRIIBecd on chip; SD ±13.42 nM
Method: as §1

B1: Recombinant polypeptide of clones 12 + 16 (designed binder)
chain: AQAKHKQYKRLKSSCKRHPLYVDFSDVGWNDWAVAPPGYHAFYCHGECPFPLADHLNSDNHAIVQTLVNSV
- Kd [1]: 67.4 nM

B2: Recombinant polypeptide of clones 8 + 14 (designed binder)
chain: GQAKRKGYKRLKSSCKRHPLYVDFKDVGWNDHAVAPPGYHAFYCHGECPFPLADHLNSDNHAIVQTKVNSV
- Kd [2]: 35.1 nM

B3: Recombinant polypeptide of clones 10 + 15 (designed binder)
chain: AQAKHKQRKRLKSSCKRHPLYVDFSDVGWNDWIVAPPGYHAFYCHGECPFPLADHLNSTNHAIVQTLVNSV
- Kd [3]: 31.3 nM

B4: Recombinant polypeptide of clones 24 + 23 (designed binder)
chain: NSKDPKACCVPTELSAISMLYLDENEKVVLKNYQDMVVHGCGCRNSKIPKACCVPTELSAISMLYLDENEKPVLKNYQDMVVEGCGCR
- Kd [4]: 62.7 nM

B5: Recombinant polypeptide of clones 12 + 25 (designed binder)
chain: AQAKHKQYKRLKSSCKRHPLYTYPASPKPMRHKMRSCACCAGGLRNRTGTV
- Kd [5]: 51.2 nM

B6: Recombinant polypeptide of clones 16 + 26 (designed binder)
chain: VDFSDVGWNDWAVAPPGYHAFYCHGECPFPLADHLNSDNHAIVQTLVNSVTYPASPKPMRHSMRSCACCAGGLRNQTGTV
- Kd [6]: 57.8 nM

B7: Recombinant polypeptide of clones 26 + 16 (designed binder)
chain: TYPASPKPMRHSMRSCACCAGGLRNQTGTVVDFSDVGWNDWAVAPPGYHAFYCHGECPFPLADHLNSDNHAIVQTLVNSV
- Kd [7]: 61.7 nM

B8: Recombinant polypeptide of clones 12 + 28 (designed binder)
chain: AQAKHKQYKRLKSSCKRHPLYEPLGGARWEAFDVTDAVQSHRRSPRASRKCCLGLRAVTAS
- Kd [8]: 59.1 nM

B9: Recombinant polypeptide of clones 28 + 12 (designed binder)
chain: EPLGGARWEAFDVTDAVQSHRRSPRASRKCCLGLRAVTASAQAKHKQYKRLKSSCKRHPLY
- Kd [9]: 57.9 nM

B10: Recombinant polypeptide of clones 16 + 29 (designed binder)
chain: VDFSDVGWNDWAVAPPGYHAFYCHGECPFPLADHLNSDNHAIVQTLVNSVEPLGGARWEAFDVTDAVQSHRRSQRASRKCCLVLRAVTAS
- Kd [10]: 58.7 nM

B11: Recombinant polypeptide of clones 29 + 16 (designed binder)
chain: EPLGGARWEAFDVTDAVQSHRRSQRASRKCCLVLRAVTASVDFSDVGWNDWAVAPPGYHAFYCHGECPFPLADHLNSDNHAIVQTLVNSV
- Kd [11]: 54.3 nM

B12: Recombinant polypeptide of clones 30 + 12 (designed binder)
chain: TALDGTRGAQGSGGGGGGGGGGGGGGGGGGGGAGRGHGRRGRSRCSRKSLHVDFKELGAQAKHKQYKRLKSSCKRHPLY
- Kd [12]: 61.1 nM

B13: Recombinant polypeptide of clones 12 + 30 (designed binder)
chain: AQAKHKQYKRLKSSCKRHPLYTALDGTRGAQGSGGGGGGGGGGGGGGGGGGGGAGRGHGRRGRSRCSRKSLHVDFKELG
- Kd [13]: 59.1 nM

B14: Recombinant polypeptide of clones 15 + 21 (designed binder)
chain: VDFSDVGWNDWIVAPPGYHAFYCHGECPFPLADHLNSTNHAIVQTLVNSVNSKIPKACCVPTELSAISMLYLDENEKVVLKNYQDMVVEGCGCR
- Kd [14]: 32.6 nM

B15: Recombinant polypeptide of clones 21 + 15 (designed binder)
chain: NSKIPKACCVPTELSAISMLYLDENEKVVLKNYQDMVVEGCGCRVDFSDVGWNDWIVAPPGYHAFYCHGECPFPLADHLNSTNHAIVQTLVNSV
- Kd [15]: 31 nM

B16: Recombinant polypeptide of clones 21 + 10 (designed binder)
chain: NSKIPKACCVPTELSAISMLYLDENEKVVLKNYQDMVVEGCGCRAQAKHKQRKRLKSSCKRHPLY
- Kd [16]: 30.2 nM

B17: Recombinant polypeptide of clones 10 + 21 (designed binder)
chain: AQAKHKQRKRLKSSCKRHPLYNSKIPKACCVPTELSAISMLYLDENEKVVLKNYQDMVVEGCGCR
- Kd [17]: 27.3 nM

B18: Recombinant polypeptide of clones 14 + 8 (designed binder)
chain: VDFKDVGWNDHAVAPPGYHAFYCHGECPFPLADHLNSDNHAIVQTKVNSVGQAKRKGYKRLKSSCKRHPLY
- Kd [18]: 33.8 nM

B19: Recombinant polypeptide of clones 19 + 8 (designed binder)
chain: NSKDPKACCVPTELSAPSPLYLDENEKPVLKNYQDMVVHGCGCRGQAKRKGYKRLKSSCKRHPLY
- Kd [19]: 33.5 nM

B20: Recombinant polypeptide of clones 8 + 19 (designed binder)
chain: GQAKRKGYKRLKSSCKRHPLYNSKDPKACCVPTELSAPSPLYLDENEKPVLKNYQDMVVHGCGCR
- Kd [20]: 31.1 nM
